In assay [1] the target is T1, human TPO receptor (MPL) expressed on Ba/F3 cells (human, UniProt P40238 26-635).
T1 sequence (looked up): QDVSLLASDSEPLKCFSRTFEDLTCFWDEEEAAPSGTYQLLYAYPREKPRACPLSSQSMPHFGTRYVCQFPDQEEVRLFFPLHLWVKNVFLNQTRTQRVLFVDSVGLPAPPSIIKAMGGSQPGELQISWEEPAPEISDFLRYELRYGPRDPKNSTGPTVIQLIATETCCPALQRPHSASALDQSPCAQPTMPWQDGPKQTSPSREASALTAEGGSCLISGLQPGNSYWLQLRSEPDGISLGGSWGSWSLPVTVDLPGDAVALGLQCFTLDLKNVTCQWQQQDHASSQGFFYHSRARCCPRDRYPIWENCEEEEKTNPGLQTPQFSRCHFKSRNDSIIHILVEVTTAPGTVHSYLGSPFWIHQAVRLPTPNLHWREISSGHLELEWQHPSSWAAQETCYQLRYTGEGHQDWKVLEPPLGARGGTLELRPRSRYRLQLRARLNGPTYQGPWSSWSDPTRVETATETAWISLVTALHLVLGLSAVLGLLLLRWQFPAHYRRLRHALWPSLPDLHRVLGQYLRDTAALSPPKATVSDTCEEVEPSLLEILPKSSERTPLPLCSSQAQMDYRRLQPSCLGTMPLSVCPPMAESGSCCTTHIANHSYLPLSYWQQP
Nature of the assay: cell-based or functional assay.

Assay [2] concerns the target T2, human Integrin Associated Protein (IAP) expressed on mouse leukemia cell line L1210 (human, UniProt Q08722 19-323).
T2 construct: whole, on cells; also called human IAP; hIAP/L1210
Nature of the assay: flow cytometry, COS7 supernatant on hIAP/L1210 cells, FITC anti-human IgG. On the procedure: Flow cytometry was performed using the aforementioned culture supernatant of COS7 cells to measure binding to the antigen. The culture supernatant of the COS7 cells expressing the chimera MABL-1 antibody or the COS7 cells expressing the chimera MABL-2 antibody, or human IgG antibody (SIGMA) as a control was added to 4×10⁵ cells of mouse leukemia cell line L1210 expressing human IAP and incubated on ice. After washing, the FITC-labeled anti-human IgG antibody (Cappel) was added thereto. After incubating and washing, the fluorescence intensity thereof was measured using the FACScan apparatus (BECTON DICKINSON).

The target in assay [3] is T2, human Integrin Associated Protein (IAP) …. Nature of the assay: flow cytometry, COS7 supernatant on hIAP/L1210 cells, anti-FLAG and FITC anti-mouse IgG. On the procedure:
Flow cytometry was performed using the aforementioned COS7 cells culture supernatant to measure the binding to the antigen. The culture supernatant of the COS7 cells expressing the reconstructed single chain Fv of antibody MABL-2 or the culture supernatant of COS7 cells transformed with pCHO1 vector as a control was added to 2×10⁵ cells of the mouse leukemia cell line L1210 expressing human Integrin Associated Protein (IAP) or the cell line L1210 transformed with pCOS1 as a control. After incubating on ice and washing, the mouse anti-FLAG antibody (SIGMA) was added. Then the cells were incubated and washed. Then, the FITC labeled anti-mouse IgG antibody (BECTON DICKINSON) was added thereto and the cells were incubated and washed again. Subsequently, the fluorescence intensity was measured using the FACScan apparatus (BECTON DICKINSON).
Flow cytometry was performed using the culture supernatants of COS7 cells prepared in Example 6.3 (1) to measure the binding of the MABL2-scFVs and sc(Fv)₂ to human Integrin Associated Protein (IAP) antigen. The culture supernatants to be tested or a culture supernatant of COS7 cells as a control was added to 2×10⁵ cells of the mouse leukemia cell line L1210 expressing human IAP. After incubating on ice and washing, 10 μg/mL of the mouse anti-FLAG antibody (SIGMA) was added and then the cells were incubated and washed. Then, the FITC labeled anti-mouse IgG antibody (BECTON DICKINSON) was added thereto and the cells were incubated and washed again. The fluorescence intensity was measured using the FACScan apparatus (BECTON DICKINSON). […] (see FIGS. 40a and 40b).

Assay [4] concerns the target T3, secretion-type human IAP antigen (human, UniProt Q08722 19-142, limits assumed).
T3 construct: also called human IAP antigen (soluble, COS7 supernatant)
As to the kind of experiment: competitive ELISA on captured secretion-type human IAP; competitor biotinized MABL-2. On the procedure: The binding activity of the reconstructed single chain Fv of antibody MABL-2 was measured based on the inhibiting activity against the binding of mouse monoclonal antibodies to the antigen.
The anti-FLAG antibody adjusted to 1 μg/ml was added to each well on 96-well plate and incubated at 37° C. for 2 hours. After washing, blocking was performed with 1% BSA-PBS. After incubating and washing at a room temperature, the culture supernatant of COS7 cells into which the secretion-type human IAP antigen gene (SEQ ID No. 26) had been introduced was diluted with PBS into twofold volume and added to each well. After incubating and washing at a room temperature, a mixture of 50 μl of the biotinized MABL-2 antibody adjusted to 100 ng/ml and 50 μl of sequentially diluted supernatant of the COS7 cells expressing the reconstructed single chain Fv of antibody MABL-2 were added into each well. After incubating and washing at a room temperature, the alkaline phosphatase-conjugated streptoavidin (Zymed) was added into each well. After incubating and washing at a room temperature, the substrate solution (SIGMA) was added and absorbance of the reaction mixture in each well was measured at 405 nm.

Numbering of substitutions follows the chain as printed.

T2 sequence (Q08722 19-323): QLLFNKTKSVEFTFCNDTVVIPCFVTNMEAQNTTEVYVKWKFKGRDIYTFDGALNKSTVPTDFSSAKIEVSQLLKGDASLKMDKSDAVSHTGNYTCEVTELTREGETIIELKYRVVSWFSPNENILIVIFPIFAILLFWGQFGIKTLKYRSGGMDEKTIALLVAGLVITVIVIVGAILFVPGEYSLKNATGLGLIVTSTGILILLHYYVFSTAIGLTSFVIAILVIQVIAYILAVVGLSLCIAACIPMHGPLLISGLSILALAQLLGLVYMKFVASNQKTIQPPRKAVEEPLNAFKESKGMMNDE
T3 sequence (Q08722 other isoform, or with tags, fused parts or gaps limits assumed): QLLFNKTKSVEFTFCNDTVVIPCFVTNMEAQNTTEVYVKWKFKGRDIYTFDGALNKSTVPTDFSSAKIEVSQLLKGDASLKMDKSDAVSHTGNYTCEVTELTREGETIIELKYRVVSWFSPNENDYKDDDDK

B1: antibody 12B5 (IgG) (antibody, V domains shown)
VH: QVQLVQSGGGLVRPGGSLSLSCAVSGITLRTYGMHWVRQAPGKGLEWVAGISFDGRSEYYADSVQGRFTISRDSSKNTLYLQMNSLRAEDTAVYYCARGAHYGFDIWGQGTMVTVSS
VL: DIQMTQSPSTLSASIGDRVTITCRASEGIYHWLAWYQQKPGKAPKLLIYKASSLASGAPSRFSGSGSGTDFTLTISSLQPDDFATYYCQQYSNYPLTFGGGTKLEIK
As for B1, in assay [1], the “ED50, TPO-like agonist activity (proliferation of BaF/mpl cells, WST-8)” value (from here on “ED50 … (proliferation of BaF/mpl cells, WST-8)”) came to 29 nM.

B2: 12B5Fab (Fab, V domains shown)
VH: B1 VH
VL: B1 VL
With B2, in assay [1], the “ED50 … (proliferation of BaF/mpl cells, WST-8)” value is 34700 nM.

B3: chimera MABL-1 antibody (antibody, V domains shown)
VH: QVQLQQSGPDLVKPGASVKMSCKASGYTFVNHVMHWVKQKPGQGLEWIGYIYPYNDGTKYNEKFKGKATLTSEKSSSAAYMELSSLASEDSAVYYCARGGYYSYDDWGQGTTLTVSS
VL: DVVMTQTPLSLPVSLGDQASISCRSSQSLLHSKGNTYLQWYLQKPGQSPKLLIYKVSNRFSGVPDRFSGSGSGTDFTLKISRVEAEDLGVYFCSQSTHVPYTSGGGTKLEIK
notes: Mouse V regions cloned into HEF-gamma and HEF-kappa vectors with human C regions; COS7 culture supernatant
With B3, the binding result in assay [2] is reported as “binds”.

B4: chimera MABL-2 antibody (antibody, V domains shown)
VH: B3 VH with D10E, V30A, M34I, G66D, E73D, S77T, A78T, E82D, S103T
VL: B3 VL with T7S, L30V, K33N, N35K, Q39H, G73V, K79M, S103F
notes: as for B3
Turning to B4, the binding result in assay [2] is “binds”.

B5: reconstructed 12B5 single chain Fv (sc12B5), culture supernatant of COS-7 cells (scFv)
scFv: QVQLVQSGGGLVRPGGSLSLSCAVSGITLRTYGMHWVRQAPGKGLEWVAGISFDGRSEYYADSVQGRFTISRDSSKNTLYLQMNSLRAEDTAVYYCARGAHYGFDIWGQGTMVTVSSGGGGSGGGGSGGGGSDIQMTQSPSTLSASIGDRVTITCRASEGIYHWLAWYQQKPGKAPKLLIYKASSLASGAPSRFSGSGSGTDFTLTISSLQPDDFATYYCQQYSNYPLTFGGGTKLEIKDYKDDDDK
In the case of B5, in assay [1], the “ED50 … (proliferation of BaF/mpl cells, WST-8)” value is 75 nM.

B6: sc12B5 monomer (scFv)
scFv: B5 scFv
Consider B6, for which, in assay [1], the “ED50 … (proliferation of BaF/mpl cells, WST-8)” value was 4440 nM.

B7: sc12B5 dimer (scFv)
scFv: B5 scFv
Turning to B7, in assay [1], the “ED50 … (proliferation of BaF/mpl cells, WST-8)” value amounted to 10.1 nM and the “fold agonist activity against monovalent sc12B5” value was ~400 fold.

B8: MABL2-scFv <LH-0> (scFv)
scFv: DVVMTQSPLSLPVSLGDQASISCRSSQSLVHSNGKTYLHWYLQKPGQSPKLLIYKVSNRFSGVPDRFSGSGSVTDFTLMISRVEAEDLGVYFCSQSTHVPYTFGGGTKLEIKQVQLQQSGPELVKPGASVKMSCKASGYTFANHVIHWVKQKPGQGLEWIGYIYPYNDGTKYNEKFKDKATLTSDKSSTTAYMDLSSLASEDSAVYYCARGGYYTYDDWGQGTTLTVSSDYKDDDDK
notes: COS7 culture supernatant; also called CF2LH-0/pCOS1
B8: the binding result in assay [3] was “binds”.

B9: antibody MABL-2 sc(Fv)2 (scFv)
scFv: QVQLQQSGPELVKPGASVKMSCKASGYTFANHVIHWVKQKPGQGLEWIGYIYPYNDGTKYNEKFKDKATLTSDKSSTTAYMDLSSLASEDSAVYYCARGGYYTYDDWGQGTTLTVSSGGGGSGGGGSGGGGSDVVMTQSPLSLPVSLGDQASISCRSSQSLVHSNGKTYLHWYLQKPGQSPKLLIYKVSNRFSGVPDRFSGSGSVTDFTLMISRVEAEDLGVYFCSQSTHVPYTFGGGTKLEIKGGGGSGGGGSGGGGSVDSQVQLQQSGPELVKPGASVKMSCKASGYTFANHVIHWVKQKPGQGLEWIGYIYPYNDGTKYNEKFKDKATLTSDKSSTTAYMDLSSLASEDSAVYYCARGGYYTYDDWGQGTTLTVSSGGGGSGGGGSGGGGSDVVMTQSPLSLPVSLGDQASISCRSSQSLVHSNGKTYLHWYLQKPGQSPKLLIYKVSNRFSGVPDRFSGSGSVTDFTLMISRVEAEDLGVYFCSQSTHVPYTFGGGTKLEIKDYKDDDDK
notes: Single chain bivalent antibody; also called pCHOM2(Fv)2
For the molecule B9, in assay [3], the binding result was “binds”.

B10: MABL2-scFv <HL-0> (scFv)
scFv: QVQLQQSGPELVKPGASVKMSCKASGYTFANHVIHWVKQKPGQGLEWIGYIYPYNDGTKYNEKFKDKATLTSDKSSTTAYMDLSSLASEDSAVYYCARGGYYTYDDWGQGTTLTVSSDVVMTQSPLSLPVSLGDQASISCRSSQSLVHSNGKTYLHWYLQKPGQSPKLLIYKVSNRFSGVPDRFSGSGSVTDFTLMISRVEAEDLGVYFCSQSTHVPYTFGGGTKLEIKDYKDDDDK
notes: COS7 culture supernatant; also called CF2HL-0/pCOS1
Consider B10, for which, in assay [3], the binding result is reported as “binds”.

B11: reconstructed single chain Fv of antibody MABL-2 (pCHOM2, COS7 culture supernatant) (scFv)
scFv: QVQLQQSGPELVKPGASVKMSCKASGYTFANHVIHWVKQKPGQGLEWIGYIYPYNDGTKYNEKFKDKATLTSDKSSTTAYMDLSSLASEDSAVYYCARGGYYTYDDWGQGTTLTVSSGGGGSGGGGSGGGGSDVVMTQSPLSLPVSLGDQASISCRSSQSLVHSNGKTYLHWYLQKPGQSPKLLIYKVSNRFSGVPDRFSGSGSVTDFTLMISRVEAEDLGVYFCSQSTHVPYTFGGGTKLEIKDYKDDDDK
notes: Unpurified COS7 supernatant; also called MABL2-scFv; MABL2-scFv/COS7
With B11, the binding result in assay [3] and in assay [4] was “binds” in each case.

The values above are taken from patent US20040058393A1 (published 2004).
